# Reference: patent US20220001039A1, “COMPOSITIONS AND METHODS FOR DETECTING ACE2 EXPRESSION PROFILES” (Washington University, priority 2020, published 2022)
# Like-named read-outs stand apart in the source and are kept apart here.
# Experiments:
# [1] = tested on: HEK293-hACE2 xenografts; set-up: species or system mice; settings: mouse, in vivo
# Experimental: Tumors were monitored and imaging commenced after reaching >200 mm3. […] PET images were reconstructed by an iterative three-dimensional maximum a priori algorithm. […] At 1, 4, and 20 h post-injection, the animals were sacrificed for tissue dissection. The organs of interest were collected, rinsed, blotted, weighed, and counted with a γ-counter (Perkin Elmer Wizard2). The total injected radioactivity per animal was determined from the measured radioactivity in an aliquot of the injectate. Data were expressed as a percent of injected activity per gram of tissue (% IA/g).
# [2] = in vivo
# Source text: Ex vivo biodistribution analysis of the tracer in these hACE2 expressing (and vehicle control) tumors recapitulated these imaging findings (FIG. 5A).
# [3] = biological target: T1, ACE2 (Homo sapiens, UniProt Q9BYF1); set-up: from tissue; host or cells: organs of hACE2 transgenic mice, imaged in vivo by PET; species or system mice; settings: mouse, in vivo
# Source text: PET images were reconstructed by an iterative three-dimensional maximum a priori algorithm.
# [4] = format: physicochemical
# Experimental: The solution was analyzed by radio-HPLC to assess the radiochemical purity. The HPLC was eluted with water-CH3CN system (Phase A: 0.1% TFA H2O; Phase B: 0.1% TFA CH3CN) using gradient elution (0-5 min 20% B; 5-10 min 20%-80% B; 10-12 min 80% B; 12-15 min 80%-20% B) at a flow rate of 1.0 mL/min. The radiolabeling yield was 59.9±3.9% (non-decay corrected, n=10) and the radiochemical purity was over 95%. […] At 1 h, 2 h, and 4 h time points, 10 μL aliquot was analyzed by radio-HPLC to assess the radiochemical purity.
# [5] = Acute toxicity test / body weight monitoring in mice; format: in vivo
# Experimental: The experiment was carried out in 10 mice at 4-weeks of age. […] The injection was repeated on day 0, day 4, day 11, day 18 and day 25, and the weight of the mice was recorded.
# [6] = biological target: T1, ACE2; settings: in vivo
# [7] = biological target: T1, ACE2; settings: in vivo; remark: listed apart in the source
# [8] = clinical; settings: human, in vivo, iv, total radioactivity, SUVmax
# [9] = biological target: T1, ACE2; assay: 68Ga-HZ20 PET/CT in healthy volunteers (SUVmax)
# [10] = healthy volunteers average, 90 min
# T1 sequence (Q9BYF1 18-805): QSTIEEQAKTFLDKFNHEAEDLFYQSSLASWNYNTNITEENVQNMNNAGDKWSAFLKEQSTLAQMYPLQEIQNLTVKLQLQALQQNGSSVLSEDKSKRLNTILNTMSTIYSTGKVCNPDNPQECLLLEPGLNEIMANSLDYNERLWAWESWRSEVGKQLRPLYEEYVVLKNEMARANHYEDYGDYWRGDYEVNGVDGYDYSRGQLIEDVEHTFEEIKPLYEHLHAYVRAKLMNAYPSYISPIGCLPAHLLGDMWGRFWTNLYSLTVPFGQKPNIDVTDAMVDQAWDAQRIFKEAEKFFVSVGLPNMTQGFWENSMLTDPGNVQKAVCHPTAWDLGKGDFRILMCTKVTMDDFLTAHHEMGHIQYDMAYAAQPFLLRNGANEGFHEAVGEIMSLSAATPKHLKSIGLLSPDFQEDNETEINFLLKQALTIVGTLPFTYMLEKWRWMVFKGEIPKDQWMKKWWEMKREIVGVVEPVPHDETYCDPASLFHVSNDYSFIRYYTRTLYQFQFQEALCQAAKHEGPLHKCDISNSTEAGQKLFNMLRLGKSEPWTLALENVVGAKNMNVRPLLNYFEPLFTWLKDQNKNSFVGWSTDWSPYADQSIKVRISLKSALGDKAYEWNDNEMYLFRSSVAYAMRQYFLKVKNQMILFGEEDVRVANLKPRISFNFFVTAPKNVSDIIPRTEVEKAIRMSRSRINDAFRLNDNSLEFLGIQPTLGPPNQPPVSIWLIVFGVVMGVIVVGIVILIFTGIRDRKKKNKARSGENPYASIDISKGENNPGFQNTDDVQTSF
smiles,measurement,setting,value
"CC(C)C[C@@H]1NC(=O)[C@@H]2CCCN2C(=O)[C@H](CO)NC(=O)[C@@H](NC(=O)[C@H](Cc2c[nH]cn2)NC(=O)[C@H](CO)NC(=O)[C@H](Cc2ccc(O)cc2)NC(=O)[C@H](CC(=O)O)NC(=O)CNC(=O)CCC(C(=O)O)N2CCN(CC(=O)O)CCN(CC(=O)O)CC2)CSSC[C@@H](C(=O)N[C@H](C(=O)N[C@@H](Cc2ccc(O)cc2)C(=O)N2CCC[C@H]2C(=O)N[C@@H](CC(=O)O)C(=O)N2CCC[C@H]2C(=O)N[C@@H](CCC(=O)O)C(=O)NCC(=O)NCC(=O)NCC(N)=O)[C@@H](C)O)NC(=O)[C@H](CCCCN)NC(=O)[C@H](Cc2c[nH]c3ccccc23)NC(=O)[C@H](Cc2c[nH]c3ccccc23)NC(=O)[C@@H]2CCCN2C(=O)[C@H](Cc2ccc(O)cc2)NC(=O)[C@H](Cc2ccc(O)cc2)NC(=O)[C@H](CCCNC(=N)N)NC1=O (stereo partly shown) [64Cu-HZ20, metal not drawn]",clearance from the blood pool,[1],rapid
same,hACE2 tumor binding,[1],Greater hACE2 tumor binding
same,kidney clearance,[1],greater kidney clearance
same,signal distribution by PET,[1],"highest signal in the kidneys, high intensity in HEK293-hACE2 xenografts, and moderate in liver"
same,tissue retention by imaging or organ counting,[2],limited or very low tissue retention
same,accumulation in hACE2 transgenic mice compared to wild-type strain,[3],"significantly higher accumulation in the heart, lung, liver, and intestine"
"CC(C)C[C@H](NC(=O)[C@@H]1CCCN1C(=O)[C@H](CO)NC(=O)[C@H](CS)NC(=O)[C@H](Cc1c[nH]cn1)NC(=O)[C@H](CO)NC(=O)[C@H](Cc1ccc(O)cc1)NC(=O)[C@H](CC(=O)O)NC(=O)CNC(=O)CCC(C(=O)O)N1CCN(CC(=O)O)CCN(CC(=O)O)CC1)C(=O)N[C@@H](CCCNC(=N)N)C(=O)N[C@@H](Cc1ccc(O)cc1)C(=O)N[C@@H](Cc1ccc(O)cc1)C(=O)N1CCC[C@H]1C(=O)N[C@@H](Cc1c[nH]c2ccccc12)C(=O)N[C@@H](Cc1c[nH]c2ccccc12)C(=O)N[C@@H](CCCCN)C(=O)N[C@@H](CS)C(=O)N[C@H](C(=O)N[C@@H](Cc1ccc(O)cc1)C(=O)N1CCC[C@H]1C(=O)N[C@@H](CC(=O)O)C(=O)N1CCC[C@H]1C(=O)N[C@@H](CCC(=O)O)C(=O)NCC(=O)NCC(=O)NCC(N)=O)[C@@H](C)O (stereo partly shown) [64Cu-HZ-19, metal not drawn]",clearance from the blood pool,[1],rapid
same,liver retention,[1],increased liver retention
"CC(C)C[C@@H]1NC(=O)[C@@H]2CCCN2C(=O)[C@H](CO)NC(=O)[C@@H](NC(=O)[C@H](Cc2c[nH]cn2)NC(=O)[C@H](CO)NC(=O)[C@H](Cc2ccc(O)cc2)NC(=O)[C@H](CC(=O)O)NC(=O)CNC(=O)CN2CCN(CC(=O)O)CCN(CC(=O)O)CCN(CC(=O)O)CC2)CSSC[C@@H](C(=O)N[C@H](C(=O)N[C@@H](Cc2ccc(O)cc2)C(=O)N2CCC[C@H]2C(=O)N[C@@H](CC(=O)O)C(=O)N2CCC[C@H]2C(=O)N[C@@H](CCC(=O)O)C(=O)NCC(=O)NCC(=O)NCC(N)=O)[C@@H](C)O)NC(=O)[C@H](CCCCN)NC(=O)[C@H](Cc2c[nH]c3ccccc23)NC(=O)[C@H](Cc2c[nH]c3ccccc23)NC(=O)[C@@H]2CCCN2C(=O)[C@H](Cc2ccc(O)cc2)NC(=O)[C@H](Cc2ccc(O)cc2)NC(=O)[C@H](CCCNC(=N)N)NC1=O [68Ga-HZ20, metal not drawn]",stability,[4],stable within 2 h
same,acute toxicity test,"[5]; mouse, in vivo",well tolerated
same,"SUVmax difference right minus left, confidence interval, eyes",[6],−0.09 to 0.10
same,"SUVmax difference right minus left, confidence interval, lungs",[6],−0.02 to 0.10
same,"SUVmax difference right minus left, confidence interval, renal cortex",[6],3.77 to 10.90
same,"SUVmax difference right minus left, confidence interval, testis",[6],−0.38 to 0.25
same,"SUVmax, breast",[6],2.72
same,"SUVmax, lung",[6],only low SUVmax
same,"SUVmax, small intestine",[6],0.48
same,"SUVmax, testis",[6],5.57
same,blood-brain barrier penetration,[6],poor blood-brain barrier penetration
same,"SUVmax, gallbladder",[7],4.32
same,"SUVmax, left testis",[7],8.65
same,"SUVmax, renal cortex",[7],18.40
same,"SUVmax, renal cortex, left kidney",[7],11.59
same,"SUVmax, renal cortex, right kidney",[7],18.40
same,"SUVmax, right testis",[7],8.79
same,SUV at 1.5 h,"[8]; both, gallbladder",2.14 ± 0.16 SUV
same,SUV,"[8]; both, other organs (relatively low uptake)",< 1.5 SUV
same,SUV,"[8]; both, renal cortex, corpus luteum, and testis (high uptake)",> 2.5 SUV
same,SUV,"[8]; female, breast, gallbladder, ovary, nasal mucosa, and esophagus (median uptake)",1.5 SUV
same,SUV,"[8]; male, conjunctiva",1.5 SUV
same,"SUVmax, breast, young group","[9]; female volunteers <50 years, 90 min",2.21±0.25
same,"SUVmax, breast, old group","[9]; female volunteers ≥50 years, 90 min",1.35±0.22
same,"SUVmax, ovary","[9]; healthy females, 90 min",2.12±1.42
same,"SUVmax, uterus","[9]; healthy females, 90 min",2.41±0.34
same,"SUVmax, testis","[9]; healthy males, 90 min",4.46±0.30
same,"SUVmax, left testis",[9]; healthy volunteers,4.58±0.40
same,"SUVmax, renal cortex, left kidney",[9]; healthy volunteers,22.18±1.78
same,"SUVmax, renal cortex, right kidney",[9]; healthy volunteers,25.67±1.39
same,"SUVmax, right testis",[9]; healthy volunteers,4.51±0.54
same,"SUVmax, conjunctiva",[9]; [10],1.71±0.08
same,"SUVmax, esophagus",[9]; [10],1.63±0.11
same,"SUVmax, liver",[9]; [10],1.59±0.14
same,"SUVmax, pancreas",[9]; [10],1.63±0.24
same,"SUVmax, rectum",[9]; [10],1.46±0.13
same,"SUVmax, renal cortex",[9]; [10],25.67±1.39
same,"SUVmax, renal medulla",[9]; [10],18.34±1.42
CC(=O)NCC(=O)N[C@@H](CC(=O)O)C(=O)N[C@@H](Cc1ccc(O)cc1)C(=O)N[C@@H](CO)C(=O)N[C@@H](Cc1cnc[nH]1)C(=O)N[C@H]1CSSC[C@@H](C(=O)N[C@H](C(=O)N[C@@H](Cc2ccc(O)cc2)C(=O)N2CCC[C@H]2C(=O)N[C@@H](CC(=O)O)C(=O)N2CCC[C@H]2C(=O)N[C@@H](CCC(=O)O)C(=O)NCC(=O)NCC(=O)NCC(N)=O)[C@@H](C)O)NC(=O)[C@H](CCCCN)NC(=O)[C@H](Cc2c[nH]c3ccccc23)NC(=O)[C@H](Cc2c[nH]c3ccccc23)NC(=O)[C@@H]2CCCN2C(=O)[C@H](Cc2ccc(O)cc2)NC(=O)[C@H](Cc2ccc(O)cc2)NC(=O)[C@H](CCCNC(=N)N)NC(=O)[C@H](CC(C)C)NC(=O)[C@@H]2CCCN2C(=O)[C@H](CO)NC1=O [DX600],"body weight, experimental group versus control group","[5]; 200 μg/200 μL on day 0, 4, 11, 18 and 25",no significant difference
same,"body weight, start of monitoring",[5]; experimental group n=5,26.5 ± 5.2 g
same,"body weight, end of monitoring","[5]; experimental group n=5, 25 days",41.2 ± 3.1 g
